Laboratory results as given in patent US20150344570A1 (published 2015).

T1: FcγRIIb extracellular domain with C-terminal His tag (human, UniProt P31994 43-217)
T1 construct: extracellular domain; also called FcgRIIb; 2b; not shown: His tag attached to the C terminus
T1 sequence (looked up): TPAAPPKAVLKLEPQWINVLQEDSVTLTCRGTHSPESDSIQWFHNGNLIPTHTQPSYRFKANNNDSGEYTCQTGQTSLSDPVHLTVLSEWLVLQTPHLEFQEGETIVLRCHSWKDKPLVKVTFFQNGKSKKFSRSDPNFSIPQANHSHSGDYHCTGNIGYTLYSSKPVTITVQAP

T2: FcγRIIb extracellular domain with C-terminal His tag (human, UniProt P31994 43-217)
T2 construct: extracellular domain; also called 2b; FcgRIIb; not shown: His tag at the C terminus
T2 sequence (looked up): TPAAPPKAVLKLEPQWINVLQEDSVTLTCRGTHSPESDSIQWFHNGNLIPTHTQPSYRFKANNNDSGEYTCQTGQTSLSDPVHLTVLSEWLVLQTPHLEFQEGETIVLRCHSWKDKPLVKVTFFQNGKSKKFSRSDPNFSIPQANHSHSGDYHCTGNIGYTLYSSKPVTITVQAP


What was measured:
[1] = molecular target: T1, FcγRIIb extracellular domain with …; test: SPR (Biacore), antibody captured on antigen peptide chip, FcγR as analyte; relative binding
Protocol: (§1) The heterodimerized antibodies He Abs in which one of the H chains was introduced with an alteration were assayed for their binding activities to each activating FcγR and inhibitory FcγR according to the method described in Example 4. […] The activating FcγRs in FIGS. 26, 27, 28, and 29 are FcγRIa, FcγRIIa (R), FcγRIIa (H), and FcγRIIIa, respectively.
(§2) Analysis of interaction between objective antibody and the FcγR was carried out using Biacore T100 (GE Healthcare). HBS-EP+ (GE Healthcare) was used as the running buffer, and the measurement temperature was set to 25° C. Chips produced by immobilizing the antigen peptide by the amine coupling method to a Series S Sencor Chip CM5 (GE Healthcare), or alternatively, chips produced by allowing preliminarily biotinylated antigen peptides to interact with and immobilize onto a Series S Sensor Chip SA (certified) (GE Healthcare) were used. Antibodies of interest were captured onto an antigen peptide-immobilized chip, and allowed to interact to each FcγR diluted with running buffer. To regenerate and repeatedly use the chip, the antibodies captured on the chip were washed off by reacting 10 mM glycine-HCl, pH 1.5.

[2] = molecular target: T3, FcγRIIIa extracellular domain with C-terminal His tag (human, UniProt P08637 17-208); test: as above
T3 construct: extracellular domain; also called FcgRIIIa; 3a; not shown: His tag attached to the C terminus
Protocol: as §1, §2
T3 sequence (P08637 17-208): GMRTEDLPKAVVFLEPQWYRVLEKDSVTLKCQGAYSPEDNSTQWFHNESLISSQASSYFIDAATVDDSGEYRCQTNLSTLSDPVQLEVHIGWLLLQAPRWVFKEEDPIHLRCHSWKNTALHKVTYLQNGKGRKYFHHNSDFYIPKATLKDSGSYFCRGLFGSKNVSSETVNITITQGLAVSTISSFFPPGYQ

[3] = molecular target: T4, FcγRIIIa extracellular domain with C-terminal His tag (human, UniProt P08637 17-208); test: SPR (Biacore); ratio of He/Con_3a (FcγRIIIa) to He/Con_2b (FcγRIIb)
T4 construct: extracellular domain; also called 3a; FcgRIIIa; not shown: His tag at the C terminus
T4 sequence (P08637 17-208): as above

[4] = molecular target: T2, FcγRIIb extracellular domain with …; test: SPR (Biacore), relative to GpH7-A5/GpH7-B3/GpL16-k0 = 100
[5] = molecular target: T4, FcγRIIIa extracellular domain with …; test: as above

| He/Con_2b [1] | He/Con_3a [2] | He_3a/2b (IIIa/IIb) [3] | He/Con_2b [4] | He/Con_3a [5] | Binder |
| --- | --- | --- | --- | --- | --- |
| 142 % of GpH7-A5/GpH7-B3/GpL16-k0 (=100) | 78.6 % of GpH7-A5/GpH7-B3/GpL16-k0 (=100) |  |  |  | GpH7-A5/GpH7-B3 variant L328_06M/GpL16-k0 (He Ab) (antibody, human IgG1, kappa, Heterodimerized antibody with the alteration in one H chain only) heavy 1: not shown heavy 2: not shown light: DIVMTQSPLSLPVTPGEPASISCQASESLVHSNRNTYLHWYLQKPGQSPQLLIYKVSNRFSGVPDRFSGSGSGTDFTLKISRVEAEDVGVYYCSQNTHVPPTFGQGTKVEIERTVAAPSVFIFPPSDEQLKSGTASVVCLLNNFYPREAKVQWKVDNALQSGNSQESVTEQDSKDSTYSLSSTLTLSKADYEKHKVYACEVTHQGLSSPVTKSFNRGEC |
|  |  | 0.4 | 108 % (control = 100) | 43.3 % (control = 100) | GpH7-A5/GpH7-B3 variant G237_19Q/GpL16-k0 (antibody, human IgG1, kappa, IgG1, anti-glypican-3; also called He Ab) heavy 1: not shown heavy 2: not shown light: DIVMTQSPLSLPVTPGEPASISCQASESLVHSNRNTYLHWYLQKPGQSPQLLIYKVSNRFSGVPDRFSGSGSGTDFTLKISRVEAEDVGVYYCSQNTHVPPTFGQGTKVEIERTVAAPSVFIFPPSDEQLKSGTASVVCLLNNFYPREAKVQWKVDNALQSGNSQESVTEQDSKDSTYSLSSTLTLSKADYEKHKVYACEVTHQGLSSPVTKSFNRGEC |
|  |  | 0.52 | 147 % (control = 100) | 76.4 % (control = 100) | GpH7-A5/GpH7-B3 variant L235_20W/GpL16-k0 (antibody, human IgG1, kappa, IgG1, anti-glypican-3; also called He Ab) heavy 1: not shown heavy 2: not shown light: DIVMTQSPLSLPVTPGEPASISCQASESLVHSNRNTYLHWYLQKPGQSPQLLIYKVSNRFSGVPDRFSGSGSGTDFTLKISRVEAEDVGVYYCSQNTHVPPTFGQGTKVEIERTVAAPSVFIFPPSDEQLKSGTASVVCLLNNFYPREAKVQWKVDNALQSGNSQESVTEQDSKDSTYSLSSTLTLSKADYEKHKVYACEVTHQGLSSPVTKSFNRGEC |
|  |  | 0.67 | 118 % (control = 100) | 79.1 % (control = 100) | GpH7-A5/GpH7-B3 variant L235_04F/GpL16-k0 (antibody, human IgG1, kappa, IgG1, anti-glypican-3; also called He Ab) heavy 1: not shown heavy 2: not shown light: DIVMTQSPLSLPVTPGEPASISCQASESLVHSNRNTYLHWYLQKPGQSPQLLIYKVSNRFSGVPDRFSGSGSGTDFTLKISRVEAEDVGVYYCSQNTHVPPTFGQGTKVEIERTVAAPSVFIFPPSDEQLKSGTASVVCLLNNFYPREAKVQWKVDNALQSGNSQESVTEQDSKDSTYSLSSTLTLSKADYEKHKVYACEVTHQGLSSPVTKSFNRGEC |
|  |  | 0.54 | 149 % (control = 100) | 80.6 % (control = 100) | GpH7-A5/GpH7-B3 variant L235_15Y/GpL16-k0 (antibody, human IgG1, kappa, IgG1, anti-glypican-3; also called He Ab) heavy 1: not shown heavy 2: not shown light: DIVMTQSPLSLPVTPGEPASISCQASESLVHSNRNTYLHWYLQKPGQSPQLLIYKVSNRFSGVPDRFSGSGSGTDFTLKISRVEAEDVGVYYCSQNTHVPPTFGQGTKVEIERTVAAPSVFIFPPSDEQLKSGTASVVCLLNNFYPREAKVQWKVDNALQSGNSQESVTEQDSKDSTYSLSSTLTLSKADYEKHKVYACEVTHQGLSSPVTKSFNRGEC |
|  |  | 0.59 | 56 % (control = 100) | 33 % (control = 100) | GpH7-A5/GpH7-B3 variant P238_01G/GpL16-k0 (antibody, human IgG1, kappa, IgG1, anti-glypican-3; also called He Ab) heavy 1: not shown heavy 2: not shown light: DIVMTQSPLSLPVTPGEPASISCQASESLVHSNRNTYLHWYLQKPGQSPQLLIYKVSNRFSGVPDRFSGSGSGTDFTLKISRVEAEDVGVYYCSQNTHVPPTFGQGTKVEIERTVAAPSVFIFPPSDEQLKSGTASVVCLLNNFYPREAKVQWKVDNALQSGNSQESVTEQDSKDSTYSLSSTLTLSKADYEKHKVYACEVTHQGLSSPVTKSFNRGEC |
| 70.9 % of GpH7-A5/GpH7-B3/GpL16-k0 (=100) | 45.1 % of GpH7-A5/GpH7-B3/GpL16-k0 (=100) |  |  |  | GpH7-A5/GpH7-B3 variant I332_11K/GpL16-k0 (He Ab) (antibody, human IgG1, kappa, Heterodimerized antibody with the alteration in one H chain only) heavy 1: not shown heavy 2: not shown light: DIVMTQSPLSLPVTPGEPASISCQASESLVHSNRNTYLHWYLQKPGQSPQLLIYKVSNRFSGVPDRFSGSGSGTDFTLKISRVEAEDVGVYYCSQNTHVPPTFGQGTKVEIERTVAAPSVFIFPPSDEQLKSGTASVVCLLNNFYPREAKVQWKVDNALQSGNSQESVTEQDSKDSTYSLSSTLTLSKADYEKHKVYACEVTHQGLSSPVTKSFNRGEC |
|  |  | 0.1 | 193 % (control = 100) | 19.7 % (control = 100) | GpH7-A5/GpH7-B3 variant G237_20W/GpL16-k0 (antibody, human IgG1, kappa, IgG1, anti-glypican-3; also called He Ab) heavy 1: not shown heavy 2: not shown light: DIVMTQSPLSLPVTPGEPASISCQASESLVHSNRNTYLHWYLQKPGQSPQLLIYKVSNRFSGVPDRFSGSGSGTDFTLKISRVEAEDVGVYYCSQNTHVPPTFGQGTKVEIERTVAAPSVFIFPPSDEQLKSGTASVVCLLNNFYPREAKVQWKVDNALQSGNSQESVTEQDSKDSTYSLSSTLTLSKADYEKHKVYACEVTHQGLSSPVTKSFNRGEC |
